Results taken from publication PMC5083789.

Biological target: Pure recombinant PlmA (Synechococcus elongatus PCC7942)
Assay: SEC; 0.1 mg pure PlmA in 0.1 ml on Superdex 200 10/300 GL, 0.3 ml/min, 50 mM Hepes pH 7.5, 0.5 M NaCl, 1 mM 2-mercaptoethanol; calibrated with protein standards

- stoichiometry N: 2
Substance: Pure recombinant PlmA (natural protein)
